Assay results taken from article PMC7104376 (Nature structural & molecular biology, 2020).

B1: Maf1-id (S. cerevisiae Maf1 lacking the internal non-conserved region, Δ64-194) (natural protein, UniProt P41910 1-395, looked up)
chain: MKFIDELDIERVNQTLNFETNDCKIVGSCDIFTTKAVASDRKLYKTIDQHLDTILQENENYNASSGTATNNVNKRRKSSINERPSNLSLGPFGPINEPSSRKIFAYLIAILNASYPDHDFSSVEPTDFVKTSLKTFISKFENTLYSLGRQPEEWVWEVINSHMTLSDCVLFQYSPSNSFLEDEPGYLWNLIGFLYNRKRKRVAYLYLICSRLNSSTGEVEDALAKKPQGKLIIDDGSNEYEGEYDFTYDENVIDDKSDQEESLQ

Columns and labels:
[1] = target: T1, C34, subunit of S. cerevisiae RNA polymerase III (S. cerevisiae, UniProt P32910 1-317); assay: cryo-EM structure
T1 sequence: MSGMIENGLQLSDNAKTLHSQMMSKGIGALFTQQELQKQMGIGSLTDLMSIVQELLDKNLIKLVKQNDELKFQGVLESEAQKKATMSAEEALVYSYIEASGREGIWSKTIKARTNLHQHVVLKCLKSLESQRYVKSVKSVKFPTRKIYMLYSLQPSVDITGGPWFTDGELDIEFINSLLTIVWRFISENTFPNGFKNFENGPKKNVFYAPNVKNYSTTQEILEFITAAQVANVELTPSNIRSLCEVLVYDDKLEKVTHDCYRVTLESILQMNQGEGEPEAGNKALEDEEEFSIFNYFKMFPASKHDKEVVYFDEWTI

[2] = target: T2, C160, subunit of S. cerevisiae RNA polymerase III (S. cerevisiae, UniProt P04051 1-1460); assay: cryo-EM structure
T2 sequence: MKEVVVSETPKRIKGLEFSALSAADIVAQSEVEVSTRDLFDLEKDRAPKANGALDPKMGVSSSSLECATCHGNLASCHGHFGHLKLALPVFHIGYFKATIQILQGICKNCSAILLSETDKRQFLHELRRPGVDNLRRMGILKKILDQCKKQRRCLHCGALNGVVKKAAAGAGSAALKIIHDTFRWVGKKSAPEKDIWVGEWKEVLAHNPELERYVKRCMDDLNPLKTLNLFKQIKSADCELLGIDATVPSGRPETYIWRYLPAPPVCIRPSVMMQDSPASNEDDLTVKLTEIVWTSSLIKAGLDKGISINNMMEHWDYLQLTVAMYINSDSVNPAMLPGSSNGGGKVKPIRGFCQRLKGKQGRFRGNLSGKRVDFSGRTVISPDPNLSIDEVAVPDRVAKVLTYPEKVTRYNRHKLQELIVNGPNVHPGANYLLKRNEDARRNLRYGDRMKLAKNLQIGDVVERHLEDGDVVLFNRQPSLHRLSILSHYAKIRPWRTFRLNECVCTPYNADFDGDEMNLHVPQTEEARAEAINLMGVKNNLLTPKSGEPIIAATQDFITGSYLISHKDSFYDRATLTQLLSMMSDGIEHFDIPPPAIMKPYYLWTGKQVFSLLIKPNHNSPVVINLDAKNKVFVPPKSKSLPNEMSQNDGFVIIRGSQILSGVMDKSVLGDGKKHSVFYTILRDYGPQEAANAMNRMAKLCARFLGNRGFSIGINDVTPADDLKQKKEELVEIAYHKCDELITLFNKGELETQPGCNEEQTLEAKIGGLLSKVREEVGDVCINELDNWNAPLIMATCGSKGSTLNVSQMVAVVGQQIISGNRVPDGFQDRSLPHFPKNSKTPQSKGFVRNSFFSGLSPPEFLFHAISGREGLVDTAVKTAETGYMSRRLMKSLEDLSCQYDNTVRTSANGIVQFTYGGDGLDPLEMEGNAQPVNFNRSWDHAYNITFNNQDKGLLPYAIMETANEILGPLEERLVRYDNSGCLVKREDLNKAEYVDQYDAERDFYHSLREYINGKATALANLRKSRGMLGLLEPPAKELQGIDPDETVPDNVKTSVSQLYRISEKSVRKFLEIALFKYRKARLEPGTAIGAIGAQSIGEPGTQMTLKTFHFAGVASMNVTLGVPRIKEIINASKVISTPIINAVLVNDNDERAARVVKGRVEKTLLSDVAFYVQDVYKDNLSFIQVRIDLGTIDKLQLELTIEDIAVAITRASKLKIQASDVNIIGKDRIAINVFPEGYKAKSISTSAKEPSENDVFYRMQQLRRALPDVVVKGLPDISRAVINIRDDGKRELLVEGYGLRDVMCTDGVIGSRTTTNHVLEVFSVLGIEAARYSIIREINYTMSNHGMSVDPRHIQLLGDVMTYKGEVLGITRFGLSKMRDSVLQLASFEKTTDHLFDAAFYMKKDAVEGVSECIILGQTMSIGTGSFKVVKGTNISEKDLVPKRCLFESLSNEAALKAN

[3] = target: T3, Maf1-id D248A/D250A (S. cerevisiae, UniProt P41910 1-395, Δ64-194 | D248A | D250A); assay: pull-down
T3 sequence (looked up): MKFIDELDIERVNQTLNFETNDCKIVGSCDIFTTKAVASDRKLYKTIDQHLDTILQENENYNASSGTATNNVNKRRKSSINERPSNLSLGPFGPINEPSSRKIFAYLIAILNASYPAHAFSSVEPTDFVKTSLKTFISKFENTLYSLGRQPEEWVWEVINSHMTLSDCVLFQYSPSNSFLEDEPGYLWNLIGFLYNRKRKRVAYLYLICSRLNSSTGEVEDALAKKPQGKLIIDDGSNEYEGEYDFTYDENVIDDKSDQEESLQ

[4] = target: T4, Maf1-id L318S/W319S (S. cerevisiae, UniProt P41910 1-395, Δ64-194 | L318S | W319S); assay: pull-down
T4 sequence (looked up): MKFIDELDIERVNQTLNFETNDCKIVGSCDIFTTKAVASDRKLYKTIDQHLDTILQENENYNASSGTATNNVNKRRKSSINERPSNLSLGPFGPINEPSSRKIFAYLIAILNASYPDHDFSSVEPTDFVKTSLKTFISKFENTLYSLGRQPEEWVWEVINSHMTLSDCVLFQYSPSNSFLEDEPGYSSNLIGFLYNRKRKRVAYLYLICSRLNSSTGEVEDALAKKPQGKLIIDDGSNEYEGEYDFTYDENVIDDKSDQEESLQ

[5] = target: B1; assay: pull-down
[6] = target: T5, Maf1-id T33E/T34E (S. cerevisiae, UniProt P41910 1-395, Δ64-194 | T33E | T34E); assay: pull-down
T5 sequence (looked up): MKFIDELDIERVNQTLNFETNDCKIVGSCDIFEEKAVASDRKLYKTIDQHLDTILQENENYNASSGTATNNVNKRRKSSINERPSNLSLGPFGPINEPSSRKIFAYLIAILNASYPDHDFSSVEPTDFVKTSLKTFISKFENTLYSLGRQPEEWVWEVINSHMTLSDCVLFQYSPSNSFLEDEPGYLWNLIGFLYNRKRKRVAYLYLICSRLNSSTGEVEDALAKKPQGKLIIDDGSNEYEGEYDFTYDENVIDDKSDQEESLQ

Measured: binding result

B1
binds: [1] | [2]

B2: His-tagged C34 1-156 (the two N-terminal WH domains of C34) (domain or fragment, S. cerevisiae, UniProt P32910 1-156, looked up)
chain: MSGMIENGLQLSDNAKTLHSQMMSKGIGALFTQQELQKQMGIGSLTDLMSIVQELLDKNLIKLVKQNDELKFQGVLESEAQKKATMSAEEALVYSYIEASGREGIWSKTIKARTNLHQHVVLKCLKSLESQRYVKSVKSVKFPTRKIYMLYSLQPS
binds: [3] | [4] | [5] | [6]
